Laboratory results reported in patent US20260008865A1.

Assays:
[1] = target: SelSP1 (PSGL-1 sulfopeptide); experiment: SPR; SelSP1 surface (FC2) blocked with 40 µg/mL antibody, then 990 nM CCL27 as competitor; Rep. 1
[2] = target: SelSP1 (PSGL-1 sulfopeptide); experiment: SPR; SelSP1 surface (FC3) blocked with 40 µg/mL antibody, then 990 nM CCL27 as competitor; Rep. 3
[3] = target: SelSP1 (PSGL-1 sulfopeptide); experiment: SPR; summary sentence in the description; target printed as PSGL-1, but the worked example used the PSGL-1 sulfopeptide SelSP1
[4] = target: SelSP1 (PSGL-1 sulfopeptide); experiment: SPR; SelSP1 surface blocked with 40 µg/mL antibody, then 990 nM CCL27 as competitor; average over FC2 and FC3 replicates
[5] = target: SelSP1 (PSGL-1 sulfopeptide); experiment: SPR; SelSP1 surface (FC2) blocked with 40 µg/mL antibody, then 990 nM CCL27 as competitor; Rep. 3
[6] = target: SelSP1 (PSGL-1 sulfopeptide); experiment: SPR; SelSP1 surface (FC3) blocked with 40 µg/mL antibody, then 990 nM CCL27 as competitor; Rep. 1
[7] = target: SelSP1 (PSGL-1 sulfopeptide); experiment: SPR; SelSP1 surface (FC3) blocked with 40 µg/mL antibody, then 990 nM CCL27 as competitor; Rep. 2
[8] = target: SelSP1 (PSGL-1 sulfopeptide); experiment: SPR; SelSP1 surface (FC2) blocked with 40 µg/mL antibody, then 990 nM CCL27 as competitor; Rep. 2
[9] = target: SelSP1 (PSGL-1 sulfopeptide); experiment: SPR (SensiQ Pioneer), antibody captured on Protein G, SelSP1 as analyte, 25 °C, 1:1 model

B1: Parental antibody (antibody, V domains shown)
VH: DVQLVESGGGLVQPGGSRKLSCAASGFTFSSFGMHWVRQAPEKGLEWVAYISSASSTIYYADTVKGRFTISRDNPKNTLFLQMTSLRSEDTAMYYCASSYGYWGQGTTLTVSS
VL: DVVMTQTPLSLPVSLGDQASISCRSSRSLVHSNGNTYLHWYLQKPGQSPQLLIYKVSNRFSGVPDRFSGSGSGTDFTLKISRVEAEDLGVYFCSQTTHVPLTFGAGTRLELKR
Percent CCL27 Inhibition [1]: 57.1% | Percent CCL27 Inhibition [2]: 47% | Kd [3]: 16.6 nM | Percent CCL27 Inhibition (Avg.) [4]: 50% | Percent CCL27 Inhibition [5]: 53.5% | Percent CCL27 Inhibition [6]: 50.5% | Percent CCL27 Inhibition [7]: 43.1% | Percent CCL27 Inhibition [8]: 50.6% | Kd [9]: 16.4 nM | koff [9]: 0.00497 s⁻¹ | kon [9]: 303000 M⁻¹ s⁻¹
